This is an account of results in patent US20210380703A1.

First the molecules themselves.
B1: 368_D04 (antibody, V domains shown)
VH: EVQLLESGGGLVQPGGSLRLSCAASGFTFSSYGMNWVRQAPGKGLEWVSGINYNGGYKSYADSVKGRFTISRDNSKNTLYLQMNSLRAEDTAVYYCARSANWHDTALDYWGQGTLVTVSS
VL: DIQMTQSPSSLSASVGDRVTITCRASQSISTYVNWYQQKPGKAPKLVIYAVTSRHSGVPSRFSGSGSGTDFTLTISSLQPEDFATYYCQQSYDSPLTFGGGTKVEIK
B2: 368_E07 (antibody, V domains shown)
VH: B1 VH with S49A, K58T, R98K
VL: B1 VL with S30L, T31S, V33L, V47L, H55A, D93E, S94N
B3: 368_E01 (antibody, V domains shown)
VH: B1 VH with G33S, S49A, G50S, G55S, K58T, S59G, A106H
VL: B1 VL with S30L, T31S, V33L, V47L, D93S, S94L
B4: 369_H09 (antibody, V domains shown)
VH: B1 VH with S30D, S31D, G33S, K58T
VL: B1 VL with S30L, T31S, V47L, R54L, H55A, D93E
B5: 370_C05 (antibody, V domains shown)
VH: B1 VH with G33S, S49A, G55S, K58T, S59G
VL: B1 VL with S30L, T31S, V51A, H55A, D93N
B6: 369_F02 (antibody, V domains shown)
VH: B1 VH with S49A, G50S, G55S
VL: B1 VL with S30V, T31S, V33L, V51A, H55A, S94T
B7: 370_A04 (antibody, V domains shown)
VH: B1 VH with S30D, G33S, K58T
VL: B1 VL with S30I, V33L, V47L, V51A, H55A, S94N
B8: 369_A02 (antibody, V domains shown)
VH: B1 VH with G33S, S49A, G55S, K58T, S59G, A106H
VL: B1 VL with S30L, T31S, V47L, V51A, H55A, S94L
B9: 369_D02 (antibody, V domains shown)
VH: B1 VH with S31D, G33S, G50N, G55S, K58T, S59G
VL: B1 VL with S30L, T31S, V33L, H55A, S94T
B10: 368_D05 (antibody, V domains shown)
VH: B1 VH with G33S, K58T
VL: B1 VL with S30L, V33L, V51A, H55A, Y92D
B11: 369_G04 (antibody, V domains shown)
VH: B1 VH with S30D, G33S, K58T
VL: B1 VL with S30L, V47L, V51T, D93E, S94T
B12: 369_C02 (antibody, V domains shown)
VH: B1 VH with S30D, G33S, G50N
VL: B1 VL with S30L, V33L, V51A, H55A, D93E, S94L
B13: 369_D12 (antibody, V domains shown)
VH: B1 VH with S30D, G33S, S49A, G55S, K58T
VL: B1 VL with S30L, T31S, V33L, V47L, V51A, R54L, H55A, S94T
B14: 369_F03 (antibody, V domains shown)
VH: B1 VH with S31D, G55S, K58T
VL: B1 VL with S30V, T31S, V47L, V51A, R54L, H55A
B15: 369_G06 (antibody, V domains shown)
VH: B1 VH with S30D, S49A, K58T
VL: B1 VL with S30L, T31S, V51A, H55A, D93E, S94N
B16: 368_G12 (antibody, V domains shown)
VH: B1 VH with S49A, G50S, G55S, K58T, S59G
VL: B1 VL with T31S, H55A, D93E, S94T
B17: 370_A01 (antibody, V domains shown)
VH: B1 VH with G33S, G55S
VL: B1 VL with V33L, V51A, H55A, D93N, S94L
B18: 369_E02 (antibody, V domains shown)
VH: B1 VH with S30D, G50N, K58T, S59G
VL: B1 VL with S30V, T31S, V47L, V51T, S94N
B19: 369_H05 (antibody, V domains shown)
VH: B1 VH with S49A, G50N, K58T, S59G
VL: B1 VL with S30V, T31S, V47L, V51A, H55A, D93S, S94N
B20: 370_A12 (antibody, V domains shown)
VH: B1 VH with S49A, K58T
VL: B1 VL with S30L, V33L, V47L, V51A, R54L, H55A
B21: 368_F03 (antibody, V domains shown)
VH: B1 VH with S30D, G33S, S49A, G55S, K58T, S59G, R98K
VL: B1 VL with S30I, T31S, V33L, V51A
B22: 369_F01 (antibody, V domains shown)
VH: B1 VH
VL: B1 VL with S30L, V47L, V51A, H55A, D93E, S94L
B23: 368_F11 (antibody, V domains shown)
VH: B1 VH with S31D, K58T, A106H
VL: B1 VL with S30V, T31S, V51A, H55A, D93N, S94N
B24: 369_F11 (antibody, V domains shown)
VH: B1 VH with S30D, G50N, G55S
VL: B1 VL with S30I, T31S, V33L, V47L, V51A, H55A, S94L
B25: 369_E12 (antibody, V domains shown)
VH: B1 VH with N35H, S49A, G50S, G55S, K58T
VL: B1 VL with S30I, T31S, V33L, V47L, V51A, H55A, D93E
B26: 369_E11 (antibody, V domains shown)
VH: B1 VH with G50N, K58T
VL: B1 VL with S30I, T31S, V33L, V47L, V51A, R54L, H55A, S94T
B27: 370_D04 (antibody, V domains shown)
VH: B1 VH with S30D, G33S, S49A, G50N, G55S, S59G
VL: B1 VL with S30L, V33L, V51A, H55A, S94N
B28: 368_D11 (antibody, V domains shown)
VH: B1 VH with S30D, S31D, G50N
VL: B1 VL with S30L, V33L, V51A, H55A, S94L
B29: 369_C04 (antibody, V domains shown)
VH: B1 VH with G33S, G50N, K58T, S59G
VL: B1 VL with S30L, V47L, A50T, V51T, R54L, D93N, S94N
B30: 369_F06 (antibody, V domains shown)
VH: B1 VH with S30D, S31D, G33S, S49A, S59G
VL: B1 VL with S30V, T31S, V51A, H55A
B31: 369_F10 (antibody, V domains shown)
VH: B1 VH with S30D, G50N, G55S
VL: B1 VL with S30V, V33L, V47L, H55A, S94L
B32: 369_G11 (antibody, V domains shown)
VH: B1 VH with G33S, S49A, G50N, G55S, S59G
VL: B1 VL with S30L, V33L, V47L, V51A, R54L, H55A, D93E
B33: 369_B01 (antibody, V domains shown)
VH: B1 VH with G33S, K58T
VL: B1 VL with S30L, T31S, V33L, V47L, H55A, D93E, S94N
B34: 370_D11 (antibody, V domains shown)
VH: B1 VH with S30D, G33S, K58T, S59G
VL: B1 VL with S30V, T31S, V33L, V47L, V51A, H55A, S94T
B35: 370_C01 (antibody, V domains shown)
VH: B1 VH with S30D, G33S, G55S, K58T, S59G
VL: B1 VL with S30L, V33L, V51A, R54L, H55A, S94T
B36: 368_E06 (antibody, V domains shown)
VH: B1 VH with S31D, N35H, K58T, S59G
VL: B1 VL with S30L, T31S, V33L, A50G, V51A, H55A
B37: 369_C03 (antibody, V domains shown)
VH: B1 VH with G50N
VL: B1 VL with S30L, V33L, V51A, H55A
B38: 370_C08 (antibody, V domains shown)
VH: B1 VH with S49A, S59G
VL: B1 VL with T31N, V33L, V47L, H55A
B39: 368_G01 (antibody, V domains shown)
VH: B1 VH with S31D, N35H, S49A, G50S, G55S, K58T
VL: B1 VL with S30L, V33L, V51A, H55A, D93N, S94L
B40: 369_H06 (antibody, V domains shown)
VH: B1 VH with S49A, G50N
VL: B1 VL with S30V, T31S, V47L, V51A, H55A, S94T
B41: 368_E04 (antibody, V domains shown)
VH: B1 VH with G33S, S49A, G50N, G55S, K58T, S59G
VL: B1 VL with S30L, T31S, V47L, V51A, S94N
B42: 368_H04 (antibody, V domains shown)
VH: B1 VH with G33S, S49A, G55S, S59G, R98K, A106H
VL: B1 VL with S30V, T31S, V47L, V51A, H55A
B43: 369_D04 (antibody, V domains shown)
VH: B1 VH with S30D, K58T
VL: B1 VL with S30L, T31S, V51A, H55A, D93N, S94L
B44: 369_G12 (antibody, V domains shown)
VH: B1 VH with G33S, S49A, G50N, K58T, S59G
VL: B1 VL with S30L, V51A, Y92D, D93N, S94T
B45: 370_A03 (antibody, V domains shown)
VH: B1 VH with G33S, G50N, K58T
VL: B1 VL with S30L, T31S, V33L, V47L, V51A, H55A

Positions count from the first letter of the chain named.

For the assay, the target named is Human Fc (human). Kind of assay: ELISA, negative control. (An ELISA detects its analyte on a solid surface through an enzyme-linked reagent.)
As for B1, the optical density stood at 0.338 OD.

On to B2, for which the optical density came to 0.251 OD.

For the molecule B3, the optical density turned out to be 0.392 OD.

Molecule B4 registered an optical density of 0.365 OD.

B5 displayed an optical density of 0.346 OD.

In turn, B6 came in with an optical density of 0.478 OD.

Take B7: the optical density stood at 0.377 OD.

With B8, the optical density worked out at 0.383 OD.

B9 came in with an optical density of 0.407 OD.

With B10, the optical density was determined as 0.282 OD.

B11 yielded an optical density of 0.385 OD.

B12: the optical density is 0.369 OD.

B13 yielded an optical density of 0.425 OD.

B14: the optical density came to 0.389 OD.

As for B15, the optical density was determined as 0.474 OD.

Take B16: the optical density amounted to 0.341 OD.

Take B17: the optical density is 0.637 OD.

In turn, B18 yielded an optical density of 0.365 OD.

B19 displayed an optical density of 0.457 OD.

As for B20, the optical density is 0.674 OD.

As to B21, the optical density was determined as 0.323 OD.

In the case of B22, the optical density was found to be 0.554 OD.

Consider B23, for which the optical density worked out at 0.338 OD.

Turning to B24, the optical density turned out to be 0.37 OD.

B25 returned an optical density of 0.452 OD.

Regarding B26, the optical density was found to be 0.343 OD.

B27 displayed an optical density of 0.371 OD.

Regarding B28, the optical density worked out at 0.297 OD.

Regarding B29, the optical density was 0.248 OD.

B30 came in with an optical density of 0.353 OD.

B31: the optical density came out at 0.361 OD.

As to B32, the optical density amounted to 0.331 OD.

On to B33, for which the optical density stood at 0.487 OD.

B34 gave an optical density of 0.34 OD.

Consider B35, for which the optical density amounted to 0.403 OD.

B36 yielded an optical density of 0.325 OD.

In the case of B37, the optical density turned out to be 0.323 OD.

Turning to B38, the optical density is 0.381 OD.

For the molecule B39, the optical density came to 0.431 OD.

B40 registered an optical density of 0.347 OD.

With B41, the optical density turned out to be 0.32 OD.

In the case of B42, the optical density came out at 0.319 OD.

B43 returned an optical density of 0.435 OD.

For B44, the optical density was found to be 0.353 OD.

Turning to B45, the optical density turned out to be 0.424 OD.
